Test results from article PMC7304070 (Journal of the American Chemical Society, 2020).
Numbered stars: 1 amine (or outer) side, 2 acyl side, 3 side chain; on linkers, the order of the positions; unused ones are H or OH. Bridge positions count the residues as written; N and C are the ends. Square brackets hold non-standard residues; d marks the D form. Ends that are not written are not given here. Bis(1,2,3triazol4ylCH2)ether = c1c(COCc2cn([*:2])nn2)nnn1[*:1]; Aha = [N-]=[N+]=NCC[C@H](N)C(=O)O

target: biotinylated MDM2 truncate (residues 10-118) (UniProt Q00987 10-118, biotin (NHS-PEG4-Biotin)); assay: BLI
Sequence (Q00987 10-118): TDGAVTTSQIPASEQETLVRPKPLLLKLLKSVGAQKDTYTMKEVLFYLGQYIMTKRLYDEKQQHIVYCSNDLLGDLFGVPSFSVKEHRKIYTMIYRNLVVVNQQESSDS

| Binder | Kd [nM] |
| --- | --- |
| VLSF[Aha]DYWNLL[Aha]GS-NH2 [SPD-M3-V1, synthetic, non-stabilized] | 131 |
| GGTF[Aha]GYWADL[Aha]AF-NH2 [SPD-M3-G1, synthetic, non-stabilized] | 21 |
| GGTF[Aha]GYWADL[Aha]AF-NH2 (triazole 5-12 via Bis(1,2,3triazol4ylCH2)ether) [SPD-M3-G1, synthetic, stabilized] | 5.1 |
| VLSF[Aha]DYWNLL[Aha]GS-NH2 (triazole 5-12 via Bis(1,2,3triazol4ylCH2)ether) [SPD-M3-V1, synthetic, stabilized] | 14 |

target: AlexaFluor647 tagged MDM2-GST (UniProt Q00987 1-491, AlexaFluor647 label); assay: flow cytometry on cells
Sequence (Q00987 whole entry): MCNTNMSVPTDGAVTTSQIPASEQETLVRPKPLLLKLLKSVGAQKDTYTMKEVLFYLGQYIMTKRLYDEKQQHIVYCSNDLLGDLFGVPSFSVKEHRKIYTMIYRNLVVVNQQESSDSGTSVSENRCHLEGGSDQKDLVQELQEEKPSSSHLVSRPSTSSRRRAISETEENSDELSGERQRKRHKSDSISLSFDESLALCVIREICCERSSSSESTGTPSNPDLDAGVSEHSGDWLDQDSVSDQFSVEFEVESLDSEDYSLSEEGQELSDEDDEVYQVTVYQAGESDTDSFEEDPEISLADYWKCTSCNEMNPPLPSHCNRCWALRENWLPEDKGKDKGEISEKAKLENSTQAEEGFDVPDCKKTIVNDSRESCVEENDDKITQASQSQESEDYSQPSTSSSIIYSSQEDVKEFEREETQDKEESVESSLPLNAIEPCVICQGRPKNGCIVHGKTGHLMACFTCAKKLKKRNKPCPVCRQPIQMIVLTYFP

| Binder | Kd [nM] |
| --- | --- |
| VLSF[Aha]DYWNLL[Aha]GS (triazole 5-12 via Bis(1,2,3triazol4ylCH2)ether) [SPD-M3-V1, displayed on the bacterial surface, stabilized] | 9.8 ± 3.4 |
| VLSF[Aha]DYWNLL[Aha]GS [SPD-M3-V1, displayed on the bacterial surface, non-stabilized] | 64 ± 33 |
